For the assay, the target named is T1, Recombinant KRAS protein (#ab156968, Abcam) (UniProt P01116 1-189).
T1 construct: KRAS, recombinant protein bought from Abcam; source: bought: Abcam (#ab156968), dialyzed into ITC buffer
The assay can be described thus: ITC; twenty 6 ul injections (150 s intervals) of 500 uM HNB into the cell with 93 uM KRAS; 20 mM Tris pH 8.0, 100 mM NaCl, 5 mM beta-mercaptoethanol; 25 C; Affinity ITC (TA Instruments). The following applies: both partners purified.

T1 sequence (P01116 whole entry): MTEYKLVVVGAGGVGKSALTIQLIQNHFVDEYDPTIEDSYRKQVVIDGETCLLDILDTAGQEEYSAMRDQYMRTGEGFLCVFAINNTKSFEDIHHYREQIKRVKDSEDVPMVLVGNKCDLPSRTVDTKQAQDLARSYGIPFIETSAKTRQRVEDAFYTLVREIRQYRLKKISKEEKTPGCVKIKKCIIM

As for MKTQLGAVKGFLHV [Honeybadger (HNB) peptide used for ITC], the Kd is 364 ± 2 µM.

Source of the values: paper doi:10.1101/2025.02.17.638454, “Synergistic RAS-MAPK and AKT Activation in MYC-Driven Tumors via Adjacent PVT1 Rearrangements” (bioRxiv, 2025).
